Reference: the supplement of paper PMC12042874
± gives the uncertainty stated by the source.

experiment: amyloid nucleation score (Sup35N fusion, yeast selection) (log enrichment); library NNK3; higher = more nucleation; inactive = no reads after selection
How it was run: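 The nucleation score is the DiMSum log enrichment of output over input reads, centred on the mode score of non-aggregating sequences. Only sequences with 100 or more input reads were scored, using Illumina sequencing of input and output plasmid inserts. Psi-negative yeast expressing Sup35N fused to peptides of 20 random codons were induced 24 hours with 100 μM copper sulfate and grown 7 days at 30°C on medium lacking adenine and uracil.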

With VVATTLEFMWRHMGTYFWGI as the substance, how does the amyloid nucleation score read?
The amyloid nucleation score was “inactive”.

With LVRCSNTR as the substance, how does the amyloid nucleation score read?
The amyloid nucleation score was “inactive”.

Which amyloid nucleation score does the source give for VVYTGTNGRLQDRA here?
Its amyloid nucleation score is “inactive”.

With TTHVILCLCNL as the substance, how does the amyloid nucleation score read?
The amyloid nucleation score was 3.07 ± 0.073.

With VVGSSIK as the substance, how does the amyloid nucleation score read?
Its amyloid nucleation score is “inactive”.

With NRKSRSYTLFLV as the substance, how does the amyloid nucleation score read?
Its amyloid nucleation score is “inactive”.

With IHILTKVWFSCVRRSLS as the substance, how does the amyloid nucleation score read?
Its amyloid nucleation score is “inactive”.

With WRVSFTLS as the substance, how does the amyloid nucleation score read?
The amyloid nucleation score was “inactive”.

Which amyloid nucleation score does the source give for YFAVMGGITLHLFAVIRSCL here?
Its amyloid nucleation score is “inactive”.

For GTLWNSIFACVFQCSERSIM, which amyloid nucleation score is on record?
Its amyloid nucleation score is “inactive”.

Which amyloid nucleation score does the source give for SNLRMRKNGVVDDIWPDERL here?
Its amyloid nucleation score is -0.802 ± 1.3.

Which amyloid nucleation score does the source give for HKASKLVYLQWCRHECWSLV here?
Its amyloid nucleation score is “inactive”.

Which amyloid nucleation score does the source give for YDVFLIL here?
The amyloid nucleation score was “inactive”.

With SCDRVFNLDVNRWKLMRKTC as the substance, how does the amyloid nucleation score read?
Its amyloid nucleation score is “inactive”.

Which amyloid nucleation score does the source give for LCGLERLKVMQWHSVPRKHI here?
The amyloid nucleation score was “inactive”.

For WHDYTQRGVWAHGTALVWG, which amyloid nucleation score is on record?
Its amyloid nucleation score is “inactive”.

Which amyloid nucleation score does the source give for RIPVSWFNWCTWVYVL here?
The amyloid nucleation score was “inactive”.

Which amyloid nucleation score does the source give for QALYDWILWNHWTTKVGPVA here?
Its amyloid nucleation score is “inactive”.

Which amyloid nucleation score does the source give for GFLESCENLVQFKRARWSNI here?
The amyloid nucleation score was “inactive”.

Which amyloid nucleation score does the source give for VFKMACEWSALWWNLLHTYS here?
The amyloid nucleation score was “inactive”.

Which amyloid nucleation score does the source give for MLYVLSYWLLKMPQMLNVNP here?
The amyloid nucleation score was “inactive”.

For DRTMLFVTCFNFRRSS, which amyloid nucleation score is on record?
The amyloid nucleation score was 1.64 ± 0.078.

With VCADIVLPQMDLPGSSGREK as the substance, how does the amyloid nucleation score read?
The amyloid nucleation score was “inactive”.

For SSIHH, which amyloid nucleation score is on record?
The amyloid nucleation score was “inactive”.

Which amyloid nucleation score does the source give for LIVAFSLASLGLKFSQCSWA here?
The amyloid nucleation score was -0.363 ± 0.96.

With MLKPIMLILKSLEFVLEESS as the substance, how does the amyloid nucleation score read?
Its amyloid nucleation score is 0.985 ± 0.11.

Which amyloid nucleation score does the source give for CYFSIYYYSYLLFRMLGVKW here?
Its amyloid nucleation score is “inactive”.

For SWGNHYLRGLICYFLLFTDT, which amyloid nucleation score is on record?
Its amyloid nucleation score is “inactive”.

Which amyloid nucleation score does the source give for GCFSSSESTIWGGAVDAKVS here?
Its amyloid nucleation score is “inactive”.

For SAWVVFVVFFVSFDPDILFY, which amyloid nucleation score is on record?
The amyloid nucleation score was “inactive”.

For IDLFRSFSLAVLVVYMSEDW, which amyloid nucleation score is on record?
The amyloid nucleation score was “inactive”.

With YSSGGYLTRVRRKGSMYRAL as the substance, how does the amyloid nucleation score read?
Its amyloid nucleation score is “inactive”.

With HNLNIHYMISRVNAYTCTFI as the substance, how does the amyloid nucleation score read?
Its amyloid nucleation score is 2.5 ± 0.074.

For STNPPNRL, which amyloid nucleation score is on record?
Its amyloid nucleation score is “inactive”.

With AALTPNPGVD as the substance, how does the amyloid nucleation score read?
Its amyloid nucleation score is “inactive”.

For VTVEALILNN, which amyloid nucleation score is on record?
The amyloid nucleation score was “inactive”.

For KINDCYGYYDLYWNWSIVRF, which amyloid nucleation score is on record?
The amyloid nucleation score was “inactive”.

Which amyloid nucleation score does the source give for RNWCSLNNLFYPWV here?
The amyloid nucleation score was 1.78 ± 0.12.

Which amyloid nucleation score does the source give for YSKSLCVFKSICIELDF here?
Its amyloid nucleation score is 2.08 ± 0.062.

With YLSTL as the substance, how does the amyloid nucleation score read?
The amyloid nucleation score was “inactive”.

Which amyloid nucleation score does the source give for EVPNFYNLPSWSA here?
The amyloid nucleation score was “inactive”.

With ESTGMPTALYSLAVTVRVDK as the substance, how does the amyloid nucleation score read?
Its amyloid nucleation score is 0.016 ± 0.33.

Which amyloid nucleation score does the source give for CRTQYKCRIAIWGYKFQPER here?
Its amyloid nucleation score is “inactive”.

With RLIYHRQFFRE as the substance, how does the amyloid nucleation score read?
Its amyloid nucleation score is “inactive”.

With CSALC as the substance, how does the amyloid nucleation score read?
Its amyloid nucleation score is “inactive”.

For RLRSNDSDLNRIAAIKVRGI, which amyloid nucleation score is on record?
Its amyloid nucleation score is “inactive”.

With LLLPWCYFRRKMGRR as the substance, how does the amyloid nucleation score read?
The amyloid nucleation score was “inactive”.

For KFLRVFVKRTLESLRRVTSV, which amyloid nucleation score is on record?
The amyloid nucleation score was “inactive”.

With LSLKNFMSSFSSLWCGWSDD as the substance, how does the amyloid nucleation score read?
Its amyloid nucleation score is 0.689 ± 0.29.

Which amyloid nucleation score does the source give for TELVLRAVSSLGVLVIFTTS here?
The amyloid nucleation score was “inactive”.

With VFNYVIGPGDKFAD as the substance, how does the amyloid nucleation score read?
Its amyloid nucleation score is “inactive”.

For FYFYSVCYYGRWIKKPCHLR, which amyloid nucleation score is on record?
The amyloid nucleation score was “inactive”.

With ISCGYSYGTRRFS as the substance, how does the amyloid nucleation score read?
Its amyloid nucleation score is “inactive”.

Which amyloid nucleation score does the source give for FPSVIINLGISFFLSSELIV here?
Its amyloid nucleation score is 1.08 ± 0.11.

With KWKVAKVGDWQAAPTLGSHR as the substance, how does the amyloid nucleation score read?
The amyloid nucleation score was “inactive”.

For FLGVNNNSVVNLYELCD, which amyloid nucleation score is on record?
Its amyloid nucleation score is “inactive”.

Which amyloid nucleation score does the source give for RCYVCRTMRACMVLAAKLEP here?
Its amyloid nucleation score is “inactive”.

With DIYFTSESSVYIVHWFLFRH as the substance, how does the amyloid nucleation score read?
Its amyloid nucleation score is “inactive”.

For RILLLDTEFRLPNLPTS, which amyloid nucleation score is on record?
Its amyloid nucleation score is 1.89 ± 0.072.

For CMTLYLLSLSC, which amyloid nucleation score is on record?
Its amyloid nucleation score is “inactive”.

For IDLNMQMELHGWHRVCWGCY, which amyloid nucleation score is on record?
Its amyloid nucleation score is 0.657 ± 0.22.

For REPVRLQNKRLPRCQRREWC, which amyloid nucleation score is on record?
The amyloid nucleation score was “inactive”.

Which amyloid nucleation score does the source give for ALQYGNHRGCSYGCMITFVR here?
Its amyloid nucleation score is “inactive”.

Which amyloid nucleation score does the source give for YYQGAQPLNPGAR here?
Its amyloid nucleation score is “inactive”.

For ISCRMYLCCQVLTSSCTWSH, which amyloid nucleation score is on record?
Its amyloid nucleation score is 1.34 ± 0.11.

With SVNIMRSLIWH as the substance, how does the amyloid nucleation score read?
Its amyloid nucleation score is “inactive”.

With WRSTRIRTSWHTDTDFLSNG as the substance, how does the amyloid nucleation score read?
The amyloid nucleation score was “inactive”.

Which amyloid nucleation score does the source give for VAAMYGILMMLMELVWSDAR here?
The amyloid nucleation score was “inactive”.

With SHKFMRCGPQMASGCNWELA as the substance, how does the amyloid nucleation score read?
Its amyloid nucleation score is “inactive”.

Which amyloid nucleation score does the source give for QFMYMFRARRTCGLNNGGQD here?
Its amyloid nucleation score is -0.689 ± 1.5.

Which amyloid nucleation score does the source give for TDPFLTCK here?
The amyloid nucleation score was “inactive”.

For YYQMRYCQWDAIQVENWVRR, which amyloid nucleation score is on record?
The amyloid nucleation score was “inactive”.

Which amyloid nucleation score does the source give for VTHLPTDIGMC here?
Its amyloid nucleation score is 0.894 ± 0.12.

Which amyloid nucleation score does the source give for ARIDCGSVELKECDLRPDYG here?
Its amyloid nucleation score is “inactive”.

With GGSVWWY as the substance, how does the amyloid nucleation score read?
Its amyloid nucleation score is “inactive”.

For MDEGIVKTELFYRWRISRLG, which amyloid nucleation score is on record?
The amyloid nucleation score was “inactive”.

For LFVIHAGMNSTSFFKNMMSC, which amyloid nucleation score is on record?
Its amyloid nucleation score is “inactive”.

With KLWFGHMPTIF as the substance, how does the amyloid nucleation score read?
The amyloid nucleation score was “inactive”.

Which amyloid nucleation score does the source give for RRYVSSDFFLSAWWTVS here?
The amyloid nucleation score was “inactive”.
